Test results reported in article PMC2585067.

Target: EYFP, free protein expressed in HeLa cells (Aequoria victoria)
Experiment: FRET or BRET

“ECFP, free protein expressed in HeLa cells” showed a cross-bleed corrected FRET normalized to fluorescence of donor of 6.2%.
